Laboratory results: US8389575B2, “Control of enzymatic peracid generation” (E.I. du Pont de Nemours and Company, priority 2008, dated 2013)

Assays:
[1] = Peracetic acid production by perhydrolases, control by initial reaction pH in sodium citrate buffer; type: biochemical; details: triacetin 100 mM, 0.050 mg/mL extract total protein, 25° C.
Description: A cell extract of a transformant expressing perhydrolase from Bacillus pumilus PS213 (KLP18/pSW195), Thermotoga maritima MSB8 (KLP18/pSW207), Thermotoga neapolitana (KLP18/pSW196), or Bacillus subtilis ATCC® 31954™ (KLP18/pSW194) was prepared by passing a suspension of cell paste (20 wt % wet cell weight) in 0.05 M potassium phosphate buffer (pH 7.0) containing dithiothreitol (1 mM) twice through a French press having a working pressure of 16,000 psi (˜110 MPa). The crude extract was then centrifuged at 20,000×g to remove cellular debris, producing a clarified cell extract that was assayed for total soluble protein (Bicinchoninic Acid Kit for Protein Determination, Sigma Aldrich catalog #BCA1-KT). The supernatant was frozen in dry ice and stored at −80° C.
Reactions (10 mL total volume) containing triacetin, hydrogen peroxide and centrifuged cell extract supernatant (prepared as described above) in 50 mM sodium citrate buffer (initial pH 7.2 or 6.5) were run at 25° C. A control reaction for each reaction condition was run to determine the concentration of peracetic acid produced by chemical perhydrolysis of triacetin by hydrogen peroxide in the absence of added extract protein (data not shown). Determination of the concentration of peracetic acid in the reaction mixtures was performed according to the method described by Karst et al., supra.

[2] = Dependence of specific activity on pH for hydrolysis of triacetin by CE-7 esterases/perhydrolases (cell extracts of E. coli KLP18 transformants); type: biochemical; details: 200 mM triacetin, 25° C.
Description: A cell extract of an E. coli transformant expressing perhydrolase from Thermotoga neapolitana (KLP18/pSW196), Thermotoga maritima MSB8 (KLP18/pSW207), Bacillus pumilus PS213 (KLP1S/pSW195), Bacillus subtilis BE1010 (KLP18/pSW189), Bacillus subtilis ATCC® 31954™ (KLP18/pSW194), or Bacillus licheniformis ATCC® 14580™ (KLP18/pSW191) was prepared by passing a suspension of cell paste (20 wt % wet cell weight) in 0.05 M potassium phosphate buffer (pH 7.0) containing dithiothreitol (1 mM) twice through a French press having a working pressure of 16,000 psi (˜110 MPa). The crude extract was then centrifuged at 20,000×g to remove cellular debris, producing a clarified cell extract that was assayed for total soluble protein (Bicinchoninic Acid Kit for Protein Determination, Sigma Aldrich catalog #BCA1-KT). A portion of the clarified Thermotoga maritima MSB8 or Thermotoga neapolitana perhydrolase-containing extract was additionally heated for 20 min at 75° C., followed immediately by cooling in an ice/water bath to 5° C. The resulting mixture was centrifuged to remove precipitated protein, and the supernatant collected and assayed for total soluble protein as before.
Reactions (10 mL total volume) containing triacetin (200 mM) and cell extract supernatant (prepared as described above) were run at 25° C. and at a pH between 4.5 and 10.0, using the buffers and buffer concentrations listed in Table 5. The concentration of extract total protein (with or without heat-treatment to denature and precipitate E. coli-derived protein) was chosen to produce an ca. 50 mM decrease in triacetin concentration over 30 min (typically from 0.025 mg/mL to 0.40 mg/mL of total extract protein, dependent on the perhydrolase). A control reaction for each reaction condition was run to determine the concentration of triacetin hydrolyzed in the absence of added extract protein. Samples (100 μL) were removed at predetermined times and immediately added to 297 μL of dd H2O and 3 μL of 6N HCL. The resulting solution was mixed, then filtered using a 30,000 NMWL filter (Millipore) using a microcentrifuge for 2 min at 12,000 rpm. An aliquot of the filtrate (100 μL) was added to 150 μL of 0.417 mM N,N-diethyl meta-toluamide (external standard) in acetonitrile, and the resulting solution analyzed for triacetin by HPLC using a Supelco Discovery C8 column (25 cm×4.0 mm, 5 um; Supelco #59353-U40) and an isocratic mobile phase of 40% acetonitrile/60% distilled water at a flow rate of 1 mL/min. Triacetin was measured by UV detection at 225 nm.

[3] = initial pH 6.5, sodium citrate 50 mM, H2O2 100 mM
[4] = initial pH 6.5, sodium citrate 50 mM, H2O2 250 mM
[5] = initial pH 7.2, sodium citrate 50 mM, H2O2 100 mM
[6] = initial pH 7.2, sodium citrate 50 mM, H2O2 250 mM
[7] = pH 7.0, potassium phosphate 0.15 M
[8] = pH 7.5, potassium phosphate 0.15 M
[9] = pH 8.0, potassium phosphate 0.20 M
[10] = pH 8.5, Tris(hydroxymethyl)aminomethane 0.20 M
[11] = pH 9.0, Tris(hydroxymethyl)aminomethane 0.20 M

| Molecule | PAA, 1 min (ppm) [1, 3] | PAA, 5 min (ppm) [1, 3] | PAA, 30 min (ppm) [1, 3] | PAA, 1 min (ppm) [1, 4] | PAA, 5 min (ppm) [1, 4] | PAA, 30 min (ppm) [1, 4] | PAA, 1 min (ppm) [1, 5] | PAA, 5 min (ppm) [1, 5] | PAA, 30 min (ppm) [1, 5] | PAA, 1 min (ppm) [1, 6] | PAA, 5 min (ppm) [1, 6] | PAA, 30 min (ppm) [1, 6] | specific activity (mmol triacetin/min/mg total extract protein) ([2]; pH 5.5, sodium acetate 0.15 M) | specific activity (mmol triacetin/min/mg total extract protein) ([2]; pH 6.0, sodium citrate 0.15 M) | specific activity (mmol triacetin/min/mg total extract protein) ([2]; pH 6.5, sodium citrate 0.15 M) | specific activity (mmol triacetin/min/mg total extract protein) [2, 7] | specific activity (mmol triacetin/min/mg total extract protein) [2, 8] | specific activity (mmol triacetin/min/mg total extract protein) [2, 9] | specific activity (mmol triacetin/min/mg total extract protein) [2, 10] | specific activity (mmol triacetin/min/mg total extract protein) [2, 11] | also measured |
| --- | --- | --- | --- | --- | --- | --- | --- | --- | --- | --- | --- | --- | --- | --- | --- | --- | --- | --- | --- | --- | --- |
| Thermotoga maritima MSB8 perhydrolase: acetyl xylan esterase with perhydrolase activity from Thermotoga maritima MSB8 (SEQ ID NO: 16), cell extract of E. coli KLP18/pSW207 (protein, listed as Thermotoga maritima) MAFFDLPLEELKKYRPERYEEKDFDEFWEETLAESEKFPLDPVFERMESHLKTVEAYDVTFSGYRGQRIKGWLLVPKLEEEKLPCVVQYIGYNGGRGFPHDWLFWPSMGYICFVMDTRGQGSGWLKGDTPDYPEGPVDPQYPGFMTRGILDPRTYYYRRVFTDAVRAVEAAASFPQVDQERIVIAGGSQGGGIALAVSALSKKAKALLCDVPFLCHFRRAVQLVDTHPYAEITNFLKTHRDKEEIVFRTLSYFDGVNFAARAKIPALFSVGLMDNICPPSTVFAAYNYYAGPKEIRIYPYNNHEGGGSFQAVEQVKFLKKLFEKG | 53 ppm | 279 ppm | 1540 ppm | 95 ppm | 742 ppm | 2446 ppm | 210 ppm | 610 ppm | 1995 ppm | 635 ppm | 1725 ppm | 3565 ppm | 1.4 mmol triacetin/min/mg total extract protein | 4.3 mmol triacetin/min/mg total extract protein | 10.3 mmol triacetin/min/mg total extract protein | 16.0 mmol triacetin/min/mg total extract protein | 19.8 mmol triacetin/min/mg total extract protein | 28.7 mmol triacetin/min/mg total extract protein | 38.8 mmol triacetin/min/mg total extract protein | 57.1 mmol triacetin/min/mg total extract protein | specific activity (mmol triacetin/min/mg total extract protein) ([2]; pH 9.5, glycine 0.20 M): 21.6 mmol triacetin/min/mg total extract protein |
| Thermotoga neapolitana perhydrolase: acetyl xylan esterase with perhydrolase activity from Thermotoga neapolitana (SEQ ID NO: 14), cell extract of E. coli KLP18/pSW196 (protein, listed as Thermotoga neapolitana) MAFFDMPLEELKKYRPERYEEKDFDEFWRETLKESEGFPLDPVFEKVDFHLKTVETYDVTFSGYRGQRIKGWLLVPKLAEEKLPCVVQYIGYNGGRGFPHDWLFWPSMGYICFVMDTRGQGSGWMKGDTPDYPEGPVDPQYPGFMTRGILDPGTYYYRRVFVDAVRAVEAAISFPRVDSRKVVVAGGSQGGGIALAVSALSNRVKALLCDVPFLCHFRRAVQLVDTHPYVEITNFLKTHRDKEEIVFRTLSYFDGVNFAARAKVPALFSVGLMDTICPPSTVFAAYNHYAGPKEIRIYPYNNHEGGGSFQAIEQVKFLKRLFEEG | 221 ppm | 607 ppm | 1925 ppm | 434 ppm | 1260 ppm | 2016 ppm | 798 ppm | 1748 ppm | 2500 ppm | 1790 ppm | 2860 ppm | 3820 ppm | 0 mmol triacetin/min/mg total extract protein | 0.4 mmol triacetin/min/mg total extract protein | 1.7 mmol triacetin/min/mg total extract protein | 3.3 mmol triacetin/min/mg total extract protein | 5.3 mmol triacetin/min/mg total extract protein | 5.8 mmol triacetin/min/mg total extract protein | 11.3 mmol triacetin/min/mg total extract protein | 12.5 mmol triacetin/min/mg total extract protein | specific activity (mmol triacetin/min/mg total extract protein) ([2]; pH 9.5, glycine 0.20 M): 12.0 mmol triacetin/min/mg total extract protein; specific activity (mmol triacetin/min/mg total extract protein) ([2]; pH 10.0, glycine 0.20 M): 0 mmol triacetin/min/mg total extract protein |
